# Measurements from patent US20110131669A1.
# Key:
# [1] = biological target: mAb R24 (anti-GD3 monoclonal antibody, IgG3); assay: competitive ELISA: BEC2 pre-incubated with mAb R24 (30 min), remaining R24 binding to plate coated with 0.1 µg GD3 ganglioside
# [2] = biological target: mAb R24 (anti-GD3 monoclonal antibody, IgG3); assay: competitive ELISA: peptide pre-incubated with mAb R24 (30 min), remaining R24 binding to plate coated with 0.1 µg GD3 ganglioside
# [3] = biological target: mAb R24 (anti-GD3 monoclonal antibody, IgG3); assay: competitive ELISA: peptide pre-incubated with mAb R24, remaining R24 binding to GD3-coated plate
Molecule,IC50 [1] [µg/mL],concentration giving full inhibition [1] [µg/mL],IC50 [2] [nM],concentration giving full inhibition [3] [pmol/mL]
RHAYRSMAEWGFLYS [GD3-like peptide PGD3-4],–,–,150,> 600
ACTPYAMLPGCK [GD3-like peptide PGD3-5],–,–,100,> 600
GLAPPDYAERFFLIS [GD3-like peptide PGD3-3],–,–,300,> 600

# Now from value to molecule:
IC50 [1] [µg/mL],concentration giving full inhibition [1] [µg/mL],IC50 [2] [nM],concentration giving full inhibition [3] [pmol/mL],Molecule
10,60,–,–,"mAb BEC2 (anti-idiotypic monoclonal antibody, IgG2b)"
–,–,250,> 600,SVAVPPPADDPSWRY [GD3-like peptide PGD3-6]
